Data set [1] concerns ZDF fa/fa rats. As to the kind of experiment: 21-day ZDF fa/fa study: serum total cholesterol and triglyceride. To be noted: day 21. Type of data set: in vivo, rat. The method, then:
(§1) Animals. Male ZDF fa/fa rats were obtained from CRL (Kingston, N.Y.). Upon arrival, rats were seven weeks of age. The rats were housed individually per cage in a room with a photo cycle of 12 hours of light and 12 hours of dark and an ambient temperature of 70-72° F. and fed on regular rodent diet and water ad libitum. At the age of eleven weeks, rats were divided into six groups (Table 5) of eight rats per group based on fasting blood glucose levels. A sub-group of four rats per group was maintained in parallel to the main groups and was dosed similarly for twenty-one days for a hyperinsulinemic-euglycemic clamp study. […]
An oral glucose tolerance test (OGTT) was performed on Day 0, 7, 14 and 21 for each group of the study. Plasma samples were collected at each time point during OGTT to also measure insulin levels. Body weight, food and water intake were measured twice a week. Blood pressure and heart rates were monitored on Day 0, 7, 14 and 21 using a non-invasive tail cuff method (with five readings per rat taken and then averaged). Fasting serum samples were collected on Day 0, 7, 14 and 21 before OGTT for determination of triglyceride and total cholesterol level. Urine samples were collected on Day 7 and 14 for the determination of glycosuria. Glycated (Glycosylated) hemoglobin (HbA1c) was measured at the end of the study. Assay kits for these studies were as presented in Table 6, and were used according to the suppliers' instructions.
The mean change in fasting blood glucose (mg/dL), serum cholesterol (mg/dL) and systolic blood pressure (mm Hg) from baseline (Day 0) to Day 21 was compared between the high-dose (5F12G1, 0.2 mg/kg) and negative control (MG2b-57, 0.2 mg/kg) groups using an analysis of covariance to adjust for baseline levels. The mean HbA1c percentage in high-dose (5F12G1, 0.2 mg/kg) rats was compared to the mean HbA1c percentage for negative control (MG2b-57, 0.2 mg/kg) rats using an unequal-variance, independent two-sample t-test. A significance level of a=0.05 was used for all tests, and all analyses were conducted using SAS statistical software (vs. 9.2, Cary, N.C., U.S.A.).

Data set [2] relates to ZDF fa/fa rats. In words: 21-day ZDF fa/fa study: tail cuff blood pressure and heart rate. Type of data set: in vivo, rat. The method, then:
as §1
An oral glucose tolerance test (OGTT) was performed on Day 0, 7, 14 and 21 for each group of the study. […] Body weight, food and water intake were measured twice a week. Blood pressure and heart rates were monitored on Day 0, 7, 14 and 21 using a non-invasive tail cuff method (with five readings per rat taken and then averaged). […] Glycated (Glycosylated) hemoglobin (HbA1c) was measured at the end of the study. […]
Blood pressure measurements were performed using a blood pressure monitor and data acquisition software. […] The VPR sensor utilized a differential pressure transducer to non-invasively measure the blood volume in the tail, and determined systolic blood pressure, diastolic blood pressure, and heart rate. […]

Data set [3] deals with ZDF fa/fa rats. As to the kind of experiment: 21-day ZDF fa/fa study: tolerability. Type of data set: in vivo, rat. As to conditions: different doses (0.2, 0.04, 0.008 mg/kg s.c. every 3 days), 21 days. The method, then: Animals. Male ZDF fa/fa rats were obtained from CRL (Kingston, N.Y.). Upon arrival, rats were seven weeks of age. The rats were housed individually per cage in a room with a photo cycle of 12 hours of light and 12 hours of dark and an ambient temperature of 70-72° F. and fed on regular rodent diet and water ad libitum. At the age of eleven weeks, rats were divided into six groups (Table 5) of eight rats per group based on fasting blood glucose levels. A sub-group of four rats per group was maintained in parallel to the main groups and was dosed similarly for twenty-one days for a hyperinsulinemic-euglycemic clamp study.
The test compounds 5F12G1 and MG2b-57 were administered subcutaneously once every three days. Exenatide was administrated intraperitoneally twice every day and sitagliptin was administrated orally once every day for a period of twenty-one days.

In data set [4] the target is T1, human BKB2R-derived epitope peptide, SE ID NO:73 (Homo sapiens, UniProt P30411).
T1 construct: purchased Biosyn, Lewisville, Tex
In words: ForteBio Octet binding kinetics to the BKB2R epitope peptide. In outline: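 Antibodies were titrated kinetically on a ForteBio Octet label-free biolayer interferometry platform against the human BKB2R epitope peptide (SEQ ID NO:73), compared with the parent mouse monoclonal. Streptavidin biosensors coated with biotinylated peptide at 50 μg/ml were equilibrated in kinetic buffer, then underwent 500 s association in antibody dilutions and 500 s dissociation in buffer.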
On the technique in general: Biolayer interferometry detects binding as a change in optical thickness at a sensor tip.

B1: 5F12G1: murine monoclonal anti-BKB2R antibody (IgG2b,κ), VH comprising SEQ ID NO:1, VL comprising SEQ ID NO:2 (antibody, listed as Mus musculus, V domains shown)
VH: EVKLEESGGGLVQPGGSMKLSCVVSGFTFSDYWMSWVRHSPEMGLEWVAEIRLKSDNYATHYAESVKGRFTISRDDSKSRLYLQINSLRGEDTGIYYCTRDYYAMEYWGQGTSVTVSS
VL: DVVMTQTPLSLPVSLGDQASISCRSSQTIVHSNGKTYLEWYLQKPGQSPKLLIYKVSNRFSGVPDRFSGSGSGTEFTLKISRVETEDLGVYYCFQASHVPYTFGGGTKLEIK
The kon is a measure of how fast the partners come together. As to B1, the serum cholesterol in data set [1] (0.008 mg/kg s.c. every 3 days) turned out to be 167 ± 7 mg/dL; in data set [1] (0.04 mg/kg s.c. every 3 days), 162 ± 18 mg/dL; in data set [1] (0.2 mg/kg s.c. every 3 days), 145 ± 26 mg/dL. In addition, the “decrease of serum cholesterol from baseline” value in data set [1] (0.2 mg/kg s.c. every 3 days) came out at 12 ± 8 mg/dL. Besides, in data set [2] (0.2 mg/kg s.c. every 3 days (highest dose), Day 0 to Day 21), the “increase in systolic blood pressure from baseline” value was 0.12+/−4.4 mm Hg. Moreover, the “systolic, diastolic blood pressure and heart rate measurements relative to the control group MG2b-57” value in data set [2] (all 5F12G1 doses, day 21) was “below the control group”. Besides, in data set [3], the “tolerability / toxic effects” value was “well tolerated and no toxic effects were noted”. In addition, the “Max Response” value amounted to 0.0265 in data set [4] (Conc. 833 nM), 0.0385 in data set [4] (Conc. 1000 nM), 0.0544 in data set [4] (Conc. 1667 nM) and 0.0757 in data set [4] (Conc. 3333 nM). The “kdis” value in data set [4] (Conc. 833 nM), in data set [4] (Conc. 1000 nM), in data set [4] (Conc. 1667 nM) and in data set [4] (Conc. 3333 nM) was 0.00109 s⁻¹ throughout. The “kon” value in data set [4] (Conc. 833 nM), in data set [4] (Conc. 1000 nM), in data set [4] (Conc. 1667 nM) and in data set [4] (Conc. 3333 nM) was 2350 M⁻¹ s⁻¹ in each case.

These data come from patent US20140017242A1, “ANTI-BRADYKININ B2 RECEPTOR (BKB2R) MONOCLONAL ANTIBODY” (Diamedica, Inc., priority 2010, published 2014).
